# From a protein production outcome set (Wang et al. 2014)
# Experiment: label from the status in PepcDB records
row,Sequence,protein production
1,MDKNIFNILKKYFGYSSFRRGQENIIQSILDGNDTFAIMPTGGGKSICYQVPALYMKGLTIVITPLISLMKDQVDTLRENGVNASYINSTLSSKETNDILMSALSGHLKILYVAPERLEQDYFRNAIKDLTISMVAIDEAHCVSQWGHDFRVSYKRIVPFINIFDKRPIVAAFTATATDEVKKDIINLLELKEPNCFITGFDRDNLFFSIVKNENKFDFITKYLSKHKELSGIIYAATRKEVDSLHQKLISQGYSVGKYHAGMGDKERSESQDLFLYDETKLMIATNAFGMGIDKSNVRFVIHYNMPKNLESYYQEAGRAGRDGEKSECIILFSGQDIQIQKFLIKQSIPSFDRQRIELKKLNDMINYCMTTSCLRKYILNYFGENYEVENCDNCINCTGNVEIVDITLEAQKIISCIYRMGQNFGVTMIAEVLKGSKNSKVLRFNFDKLSTYGIMKDCTLKQITNLINTLIADGYLYLSDSEYATVKMSQKSIEVLKGYKKVVQKIHIVEELSLSTDNTLFEILKALRLEIARRENVPPYIIFSDSVLSEMCKYYPKDKNSMLQIKGVGEIKYNKYGEIFEEKIREYIKETNLTPEDNNKGTLKVPELLSKKIPTHIETFNLYKKGITIADMAKIRNLSIPTIQEHILKCANEGLNVNLDAYIPAEYKDLIYEKIRILGTSKLRPIKDALPDDVDYMAIKAAICKYTSKNKAI,failed
2,MDKNIWTSRRRRGRSHHRSPALRQCDSSERYTSGASQSSQDSGHHDVECPSTSSSKAGESSVPDLPGFYFDPEKNRYFRLLPGHNNCNPLTKEGIQLKEMESRRLQLLQQEDKQKKKIARVGFNASSILRKNQLGFLNFSSYCRLSHELRVACMERKKVEIQSSDPSALASDRFNFILADTTSDRLFTVNDVKIGGSKYGIISLQGLKAPTFEVHMHENLYFTNRKVNSVCWASLNHLDSHILLCLMGLAETPGCATLLPASLFVSSHQGTDQPGMLCSFRIPGAWSCAWSLNVQANNCFSTGLSRRVLLTNVVTGHRQSYWTNSDVLAQQFAVKTPLLFNGCRSGEIFAIDLRSPSQAKGWKATQIFHDSAVTSVQVFKEEQYLMASDMAGKIKLWDLRATKCVRQYEGHVNEYAYLPLHMHEEEGILVAVGQDCYTRIWSLHDARLLRTIPSPCPTSKANIPSVAFSPRLGGPRGAPGLLMAVQQDLYCFPYSSSCPDGLKEGRWEPSSVSKEDIL,failed
3,MDKQTSPQEEIPELAVAVPQDAAALARALDLEAQTVSTWLTQGLGIVARVGSQIVGLAHLVDDGGHADVTDLALTTPDDADVVAALIGGAEQIATELESRVLVVSGLKASPGPAYHYNSGWVRVLPTRVVVPTAEAMHAFGAALAAQLRAGDIVLASGDLGAGKTTLAQGIGRGLGVDGPVISPTFVLARRHVGSEGRPGLVHVDAYRLGSAAELIDLDLDETMDQAVTLIEWGAGIAEDLGGSHLDVDIRRSGDPADETRVVYLEGFGPRWQDVDLSLLSELPLDTISPDQTGDNN,failed
4,MDLALAPETLARWQFGITTVYHFLFVPLTISLAALTAGLQTAWVRTEKEKYLRATKFWGKLFLINIAMGVVTGIVQEFQFGMNWSDYSRFVGDVFGAPLAFEALIAFFFESTFIGLWIFGWDKLPKKIHLACIWMVSIGTLLSAYFILAANSWMQHPVGYRINEEKGRAELTDFWQVLTQNTTLNQVFHSFSAAFLTGGAFMVGIAAFHLMRKKHIPVMRTSLRLGLVTLAVGGLLTAVSGDTLGKVMYEQQPMKMAAAEALWDGEKPAPFSVFAYGDVDKGHNKVALEVPGLLSFLAHSDFESYVPGINDTNKALQEQFGPGDYKPIVPVAYWGFRWMIGFGMASFSLGLLGLWLTRKRFLLPPALRTGEDEVPHLVLLKKPLGARLTRMYWLLALWTMAFPLIANSWGWIFTEMGRQPWVVYGVMQTRDAVSPGVSTAEVIISMSVFTLLYAVLAVIEVKLLAKYVKAGPPELTEADLNPPTKIGGDLRDADKPMAFSY,failed
5,MDLFPVLKELAQKTPSKILLIVLDGVGGLPLEPGGPTELEAAKTPNLDRLAEESALGLLTPVYPGLAPGSGPGHLALFGYDPFRYVVGRGALSALGLGADFREGDVALRGNFATLDPEGKVVDRRAGRPPTEENQRVIAKLKEAIPRIEDVEVLFYTESEHRFLVILRGEGLEDKVTDTDPQKTGLPPLKAKALDEASERTARLVNLLSERIREVLKDEPRMNGALFRGASKKPSFPRMQEVYKLTPAAIASYPMYKGLASLVGMEVLPVEGEGDALEGKLKALKENWGRYDFFYFHVKKTDAMGEDGNFHGKVEKVELFDALLPEILALGPDVLAITGDHSTPALLKAHSWHPVPLLLKAPYLRADEARRFTEREAQRGSLGHLRGVELMPLLLAHAGKLLKYGA,failed
6,MDLHESESRTHVLSTDGDDGYIDMEVNLSSSSSSSTSSSSFFSFPVTSSPPQSREFEFQMCSSAVASGESTTSPADELFYKGQLLPLHLPPRLKMVQKLLLASSSSTAATETPISPRAAADVLSPRRFSSCEIGQDENCFFEISTELKRFIESNENHLGNSWSKKIKHSSITQKLKASRAYIKALFSKQACSDSSEINPRFKIEPSKVSRKKNPFVNSENPLLIHRRSFSGVIQRHSQAKCSTSSSSSSSASSLSSSFSFGSNGSLDLQTLMRSSNASDNSIEGAIEHCKQSFTTRKSNVTESELCSSRTSVSTCGDLDKD,failed
7,MDLIHEKVFVNRYHYDVRNHEWEKENGVPKTNVEVTFQLHHKDKEANNTSVVAVLQFMIVRDEFVISGIVSQMNHIQNRIVNNPKDFSQEEAEYLAAPLLDTLQRLTYEVTEIALDRPGINLEF,not failed
8,MDLKGWISKKSSNVSYEKIKYEFSNVKYSVDHGRLEILHGIKGILLPKTITVIMGPSGSGKTTLLNILSMKVTEGVEGDFLINDMSRMKNIKRHMGYVLQDDYFFSRLTVYETIEFTAKLKLDIRDKKKLNELVHSVLDIMSLTHVKDTIVGDAFIRGISGGQRKRLSIANEILSNPPLLLMDEPTSGLDSSSALSLVECIQRIAQTSNTTIISSLHQPSSQVFSKFDRLIAITNGYIIYHGKTTDLNKYLKKVGFICPYGWNVADYLMDILSNKKFEAILIDNYNKYLHFDSDVGYYMNVKAIDSKIIHDDYDSILEKTNQSISKNSQTNNKSSTNLSSINKSPILSTQENKTREHDILKFQAVELLISLQENKTPYIRQNFFLLIRGLKKIITDEITIIKVIDLVVILTLFGVLWLHTFKEETEEGIIDTIGAIFFILSYWTFYPAYLSLYSFPSEREVIAKERNMKTFQVSNYFLSKLLAEFIYFFMIIAFWILVTHLILYGTLKIGIYLSYAFITLLNALISSSLGYFISTLFDNFSKAVSFLSVVLLTMTLTNGFYVEISKLDVPFRYLQWLSYQTYSASVLAKIKFDDALIKCSPDNNSLPCKNNGFFPGEIIVQKRFATLHISISILILICFYSVIKTFTYVSLRWSQALKMK,failed
9,MDLMAYWLCITNEDNWKVIKEKKIWGVAERYKNTINKVKVGDKLIIYEIQRSGKDYKPPYIRGVYEVVSEVYKDSSKIFKPTPRNPNEKFPYRVKLKEIKVFEPPINFKELIPKLKFITNKKRWSGHLMGKAMREIPEEDYKLIVGN,not failed
10,MDLNNNKSNNIVKTLARWCLLLQAFMISSNTVALKEPDYVNMNITIRNSMTGLIRPEIVYRCQSKRKDYGWHRSPKPGVQFSFPIILIKGETKIPAIHICQIRSVLGTATLVIQNTYLDAEMCPRSSCAHEATPKGIVFRGLEWDFKTVFPKLKPVEYLELPWTPWPNRT,failed
11,MDLRVLLSGLAYSTIFGLSFLFTKNALDYVTPLTFLSFRFIVAFLSYLLLLITGAVKLGKKPYWKLWKLVLFQPVLYFLFETYGLQRVNSSEAGMIIALIPIVVNLLAPFILKEKGDLLHYLLVGMGFLGVSLIVGFNITPGNIVGKVFMLLAVLSGAMYSVFSRKFSKEFTPTEITFFMMMTGAVFFTLLSLSTGDFRPVFNVDVVIGALYLGVLSSTVAFFLLNYAIRKLSPIFTTLFSNFTTVVSVIAGVVFRNETVGIQQIAGMGLIISSLIIMSLRRSYKRLSRAQKL,failed
12,MDLSSKPQQQLLNSLPIAGELTVTGEMGVCYKECLKNHAANLGGHALDGCGEFMPSPTATSTDPSSLRCAACGCHRNFHRRDPSENLNFLTAPPISSPSGTESPPSRHVSSPVPCSYYTSAPPHHVILSLSSGFPGPSDQDPTVVRSENSSRGAMRKRTRTKFTPEQKIKMRAFAEKAGWKINGCDEKSVREFCNEVGIERGVLKVWMHNNKYSLLNGKIREIEHGLCLNTHSNDGDGSSSS,not failed
